Source: patent publication US20240239887A1 (SUZHOU KANOVA BIOPHARMACEUTICAL, published 2024)

T1: human TIGIT/mIgG2aFc recombinant protein (human, UniProt Q495A1 22-141)
T1 construct: range 22-141; In-house production; also called TIGIT/mIgG2aFc protein; human TIGIT/mIgG2aFc protein; not shown: mouse IgG2a Fc
T1 sequence (looked up): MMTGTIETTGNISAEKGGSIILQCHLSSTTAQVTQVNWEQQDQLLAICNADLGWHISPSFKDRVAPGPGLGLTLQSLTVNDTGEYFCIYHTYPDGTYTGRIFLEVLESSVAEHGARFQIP

T2: TIGIT (SPR analyte) (human, UniProt Q495A1 22-141, limits assumed)
T2 construct: the text says only 'TIGIT was used as the analyte'; The construct is not described; also called human TIGIT
T2 sequence (looked up): T1 sequence (looked up)

T3: full-length human TIGIT on Jurkat/TIGIT cells (human, UniProt Q495A1 22-244)
T3 construct: whole, on cells; also called Human TIGIT-expressing Jurkat cells; TIGIT expressed on cell surface
T3 sequence (looked up): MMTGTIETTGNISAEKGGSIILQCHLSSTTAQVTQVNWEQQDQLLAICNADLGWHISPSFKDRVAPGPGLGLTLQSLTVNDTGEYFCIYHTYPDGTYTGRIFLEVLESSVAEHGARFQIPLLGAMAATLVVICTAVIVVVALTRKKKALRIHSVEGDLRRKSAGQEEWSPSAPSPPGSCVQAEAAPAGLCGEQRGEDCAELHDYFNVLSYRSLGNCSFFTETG

B1: anti-TIGIT antibody VH2+VL4 (antibody, human IgG1, kappa)
heavy: not shown
light: DIVMTQSPDSLAVSLGERATINCSASSSVSYIHWYQQKPGQPPKLLIYRTSNLASGVPDRFSGSGSGTDFTLTISSLQAEDVAVYYCQQYHSNPWTFGGGTKLEIKRTVAAPSVFIFPPSDEQLKSGTASVVCLLNNFYPREAKVQWKVDNALQSGNSQESVTEQDSKDSTYSLSSTLTLSKADYEKHKVYACEVTHQGLSSPVTKSFNRGEC
notes: Biotin-labeled in the cynomolgus TIGIT flow cytometry assay; also called HC1 + LC3
B2: VH3 + VL4 (antibody, human IgG1, kappa, V domains shown)
VH: QVQLVQSGAEVKKPGASVKVSCKASGYTFSRYWIEWVRQAPGQGLEWMGEIFPGSGGTNYNEKFKGRVTMTRDTSTSTVYMELSSLRSEDTAVYYCARHLGALDYWGQGTLVTVSS
VL: DIVMTQSPDSLAVSLGERATINCSASSSVSYIHWYQQKPGQPPKLLIYRTSNLASGVPDRFSGSGSGTDFTLTISSLQAEDVAVYYCQQYHSNPWTFGGGTKLEIKR
notes: Humanized full-length IgG; also called HC2 + LC3
B3: VH4 + VL2 (antibody, human IgG1, kappa, V domains shown)
VH: EVQLVQSGAEVKKPGESLKISCKGSGYTFSRYWIEWVRQMPGKGLEWMGEIFPGSGGTNYNEKFKGQVTISADKSISTAYLQWSSLKASDTAMYYCARHLGALDYWGQGTLVTVSS
VL: DIQMTQSPSSLSASVGDRVTITCSASSSVSYIHWYQQKPGKAPKLLIYRTSNLASGVPSRFSGSGSGTDFTLTISSLQPEDFATYYCQQYHSNPWTFGGGTKLEIKR
notes: Humanized full-length IgG; also called HC3 + LC1
B4: Chimeric VH+VL (Parental mouse VH+VL combined with human Fc) (antibody, human IgG1, kappa, V domains shown)
VH: QVQLQQSGAELMKPGASVKISCKATGYTFSRYWIEWVKQRPGHGLEWIGEIFPGSGGTNYNEKFKGKATFTADTSSNTAYMQLTSLTSEDSAVYYCARHLGALDYWGQGTSVTVSS
VL: QIVLTQSPAIMSASPGEKVTISCSASSSVSYIHWYQQKAGSSPKPWIYRTSNLASGVPARLSGSGSGTSYFLTISSMEAEDAATYYCQQYHSNPWTFGGGTKLEIKR
notes: also called chimeric antibody
B5: VH3 + VL3 (antibody, human IgG1, kappa, V domains shown)
VH: B2 VH
VL: EIVLTQSPGTLSLSPGERATLSCSASSSVSYIHWYQQKPGQAPRLLIYRTSNLASGIPDRFSGSGSGTDFTLTISRLEPEDFAVYYCQQYHSNPWTFGGGTKLEIKR
notes: Humanized full-length IgG; also called HC2 + LC2

Columns and labels:
[1] = target: T4, full-length cynomolgus TIGIT on 293T cells (cynomolgus, UniProt A0A7N9I9V4 89-312); assay: flow cytometry on 293T cells transfected with cynomolgus TIGIT, biotin-labeled antibody detected with Brilliant Violet 421 streptavidin, readout % of bound cells
T4 construct: whole, on cells; also called cynomolgus-expressing 293T cells
Description: A DNA encoding full-length cynomolgus TIGIT (NCBI Accession No: XP_015300911.1) was cloned into pcDNA3.4 vector (Invitrogen #A14697) and transfected into 293T cells (Cell Bank, Chinese Academy of Sciences, #SCSP-502) by using Polyethylenimine Max reagent (Polysciences #24765-2). 48 hours post-transfection, cynomolgus-expressing 293T cells were incubated with different concentrations of biotin-labeled (Thermo #21338) anti-TIGIT antibody VH2+VL4 at 4° C. for 20 minutes. Then cells were washed once by FACS buffer (PBS with 2% FBS) and incubated with Brilliant Violet 421 Streptavidin (Biolegend #405225) at 4° C. for 30 minutes. After washed once by FACS buffer, cells were resuspended in 200 μL FACS buffer. The cells after staining were analyzed by BD FACSCelesta Flow Cytometer.

[2] = target: T1, human TIGIT/mIgG2aFc recombinant protein; assay: ELISA, plate coated with human TIGIT/mIgG2aFc, anti-human IgG-HRP detection
Description: MaxiSorp 96-well plates (NUNC #449824) were coated with 2 μg/mL human TIGIT/mIgG2aFc protein (in-house production, the method is well known in the art) in 1× PBS (50 μL/well). Plates were incubated at 4° C. overnight. Coating solution was removed and plates were washed once with 200 μL/well PBST (1× PBS containing 0.05% tween-20). Then 200 μL/well blocking buffer (1× PBS with 0.05% tween-20, 3% BSA) was added and incubated at room temperature for 1 hour. Blocking buffer was removed and plates were washed three times with 200 μL/well PBST. Antibody VH2+VL4 (produced in Example 2) and human IgG1 isotype control (hIgG1, Sigma #I5154-1MG) was diluted by 1× PBS and added to plates (50 μL/well). Plates were incubated at room temperature for 2 hours. Antibodies in the wells were removed and plates were washed three times with 200 μL/well PBST. Goat anti-human IgG(H&L)-HRP secondary antibody (Jackson Immuno Research #109-035-088) was diluted 1:5000 in 1× PBS and added to each well (50 μL/well). Plates were incubated at room temperature for 1 hour. Secondary antibody was removed and plates were washed five times with 200 μL/well PBST. 50 μL/well TMB (eBioscience #85-00-4201-56) was added and plates were incubated at room temperature for several minutes. Then 50 μL/well 2N H₂SO₄ was added to stop the reaction. Optical density was measured at 450 nm.

[3] = target: T2, TIGIT (SPR analyte); assay: SPR (Biacore 8K), antibody captured through Fc, TIGIT as analyte
Description: TIGIT was used as the analyte. The surface was regenerated before the injection of another antibody. The process was repeated until all antibodies are analyzed. The off-rates of antibodies were obtained from fitting the experimental data locally to 1:1 interaction model using the Biacore 8K evaluation software. The antibodies were ranked by their dissociation rate constants (off-rates, kd) (Table 1). Based on the ranking result, the top 4 clones were selected.

[4] = target: T3, full-length human TIGIT on Jurkat/TIGIT …; assay: flow cytometry on Jurkat/TIGIT cells, Alexa Fluor 594 goat anti-human IgG secondary antibody, readout % of bound cells
Description: Jurkat/TIGIT cells were incubated with different concentrations of anti-TIGIT antibody VH2+VL4 or human IgG1 isotype control at 4° C. for 30 minutes. Then cells were washed once by FACS buffer (PBS with 2% FBS) and incubated with Alexa Fluor 594 AffiniPure Goat Anti-human IgG secondary antibody (Jackson ImmunoResearch #109-585-088) at 4° C. for 30 minutes. After washed once by FACS buffer, cells were resuspended in 200 μL FACS buffer. The cells after staining were analyzed by BD LSRFortessa Flow Cytometer.

T4 sequence (A0A7N9I9V4 entry or part of it): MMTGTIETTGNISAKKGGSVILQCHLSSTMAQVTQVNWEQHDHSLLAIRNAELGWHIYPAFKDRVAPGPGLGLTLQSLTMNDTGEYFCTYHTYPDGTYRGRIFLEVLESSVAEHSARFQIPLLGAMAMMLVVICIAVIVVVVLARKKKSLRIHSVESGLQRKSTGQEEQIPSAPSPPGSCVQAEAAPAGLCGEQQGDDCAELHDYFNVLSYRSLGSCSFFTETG

Binder | EC50 [1] [nM] | EC50 [2] [nM] | Kd [3] [nM] | koff [3] [s⁻¹] | kon [3] [M⁻¹ s⁻¹] | EC50 [4] [nM]
B1 | 0.02 | 0.47 | 0.101 | 4.47e-05 | 444000 | 1.13
B2 |  |  | 0.11 | 4.38e-05 | 396000 | 
B3 |  |  | 0.122 | 4.97e-05 | 407000 | 
B4 |  |  | 0.179 | 5.56e-05 | 310000 | 
B5 |  |  | 0.111 | 3.25e-05 | 294000 | 
